The target of this data set is T1, TLR7 Fc chimera (recombinant human TLR7) (Homo sapiens, UniProt Q9NYK1 27-839).
T1 sequence: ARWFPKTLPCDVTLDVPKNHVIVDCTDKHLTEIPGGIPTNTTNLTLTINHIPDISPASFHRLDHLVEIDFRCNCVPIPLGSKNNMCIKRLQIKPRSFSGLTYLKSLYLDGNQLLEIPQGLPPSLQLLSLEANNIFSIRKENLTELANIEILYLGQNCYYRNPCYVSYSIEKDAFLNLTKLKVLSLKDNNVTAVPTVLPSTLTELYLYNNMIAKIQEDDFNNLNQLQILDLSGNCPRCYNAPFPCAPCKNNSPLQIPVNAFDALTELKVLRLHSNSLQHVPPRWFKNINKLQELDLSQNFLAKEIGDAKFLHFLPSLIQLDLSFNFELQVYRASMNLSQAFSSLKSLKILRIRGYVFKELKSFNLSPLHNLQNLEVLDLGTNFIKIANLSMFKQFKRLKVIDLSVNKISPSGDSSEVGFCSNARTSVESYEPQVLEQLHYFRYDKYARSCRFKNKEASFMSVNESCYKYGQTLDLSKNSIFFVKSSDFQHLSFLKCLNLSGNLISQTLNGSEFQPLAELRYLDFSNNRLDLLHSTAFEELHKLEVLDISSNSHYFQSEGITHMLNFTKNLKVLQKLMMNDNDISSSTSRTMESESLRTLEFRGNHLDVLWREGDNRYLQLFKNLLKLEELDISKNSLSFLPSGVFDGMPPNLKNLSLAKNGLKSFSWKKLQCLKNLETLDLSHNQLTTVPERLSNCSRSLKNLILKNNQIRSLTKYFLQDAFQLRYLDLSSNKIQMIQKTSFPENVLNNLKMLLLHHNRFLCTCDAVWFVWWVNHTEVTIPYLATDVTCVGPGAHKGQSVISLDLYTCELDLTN
The data set can be described thus: fluorescence anisotropy; 10 uM HEPES (so in the source), 150 mM NaCl, 300 uM EDTA, 1 mM DTT, 1% glycerol; pH and temperature not stated; FA: 20 nM RNA, 10-300 nM TLR7, 10 min; EMSA: 100 ng RNA, 1 ug TLR7 in 20 uL, 30 min, 5% polyacrylamide gel. The conditions noted are these: protein: commercial; tags: Fc chimera; chain copies: 2; label: 5' FAM. In general terms: In fluorescence polarisation assays a small probe gives low polarisation when free and higher when bound to something large.

One may read the Kd as the constant that tells how readily two partners part at equilibrium. For GUUGUCAAUGGUCCUUCAA (ssRNA) [XIST1.1], the Kd was 138 nM.
Take AAAAAAAAAAAAAAAAAAA (ssRNA) [polyA]: the binding result is given as “no binding”.
As to UUGAAGGACAGGUUAAGCU (ssRNA) [RNA9.2a], the Kd is 752 nM.
The same measure, in the same setting: under AGCUUAACCUGUCCUUCAA (ssRNA) [RNA9.2s] stands 292 nM.

Values taken from PMC10634230, “The XIST lncRNA is a sex-specific reservoir of TLR7 ligands in SLE”.
